One assay concerns the target 2S-hsINTS13-hsINTS14 (human, UniProt Q9NVM9;Q96SY0). Kind of assay: fluorescence polarisation. A general note: Fluorescence polarisation rises when a labelled molecule tumbles more slowly, as on binding a larger partner.
The next assay concerns the target hsINTS13(1-256Δ27-48) (human, UniProt Q9NVM9 1-256, Δ27-48). Kind of assay: crystal structure.

A value given as a limit tells only on which side of the number the result lay.

A word on the Kd: it is the concentration at which binding is half-saturated. YDSDGDKSDDLVVDVSNE [GFP-hsTLE3 (238-255)]: the Kd in the assay with 2S-hsINTS13-hsINTS14 was greater than 10000 nM.

The molecule EGSSDEEGKLVIDEPAK [GFP-hsHDGF (130-146)] came in with a Kd with 2S-hsINTS13-hsINTS14 of 5850 nM.

The molecule DTGSETDEEDKLHIAEDD [GFP-hsZEB2 (33-50)] returned a Kd with 2S-hsINTS13-hsINTS14 greater than 10000 nM.

Turning to EDRLERLQEILRKFLYLEREFRQITIS [hsZNF655(93-119)], the binding result in the assay with hsINTS13(1-256Δ27-48) is reported as “binds”.

In turn, DEWDIGVGNLIIDLDAD [GFP-hsZNF609 (25-41)] had a Kd in the assay with 2S-hsINTS13-hsINTS14 of 573 nM.

In the assay with 2S-hsINTS13-hsINTS14, EDRLERLQEILRKFLYLEREFRQITIS [GFP-hsZNF655 (93-119)] came in with a Kd of 17.6 nM.

In turn, EGEEDEEGKLVIDEPAK [GFP-hsHDGF S2E (130-146)] gave a Kd with 2S-hsINTS13-hsINTS14 of 2630 nM.

Turning to DDWEIGVGNLIIDLDAD [GFP-hsZNF608 (24-40)], binding with 2S-hsINTS13-hsINTS14 was characterised by a dissociation constant (Kd) of 633 nM.
